Data from publication PMC5943153.

Legend:
Experiment in all cases: two-hybrid
[1] = target: HP0221-T25 (NifU) (Helicobacter pylori strain 26695) (UniProt O25009)
[2] = target: T25-HP0221 (NifU) (Helicobacter pylori strain 26695) (UniProt O25009)
[3] = target: T25-HP1492 (Nfu) (Helicobacter pylori strain 26695) (UniProt O26025)
[4] = target: T25-HP0220 (NifS) (Helicobacter pylori strain 26695) (UniProt O25008)
T25-Zip = target: T25-Zip
T25-Zip, sequence (P03069 whole entry): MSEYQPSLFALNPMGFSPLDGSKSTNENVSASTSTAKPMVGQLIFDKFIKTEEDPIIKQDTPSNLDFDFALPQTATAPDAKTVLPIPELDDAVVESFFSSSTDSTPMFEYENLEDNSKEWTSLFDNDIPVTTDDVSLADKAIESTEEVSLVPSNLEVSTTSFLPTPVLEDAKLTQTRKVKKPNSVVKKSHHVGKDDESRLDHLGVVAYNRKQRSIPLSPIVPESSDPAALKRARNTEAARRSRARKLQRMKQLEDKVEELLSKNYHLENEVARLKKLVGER

T18-Zip (domain or fragment), sequence (P03069 whole entry, the tested form may be a part): as the sequence (P03069 whole entry) above

| Substance | growth OD595 in M63-maltose [1] | growth OD595 in M63-maltose [2] | other results |
| --- | --- | --- | --- |
| T18-HP0117 (from UniProt P56080 2-308) (natural protein) | 0.36 OD595 | – | – |
| T18-HP0142 (from UniProt O24954 2-328) (natural protein) | 0.44 OD595 | – | – |
| T18-HP0400 (from UniProt P65185 2-274) (natural protein) | – | 0.11 OD595 | – |
| T18-HP1406 (from UniProt O25956 2-282) (natural protein) | 0.26 OD595 | – | – |
| T18-HP1492 (natural protein) | 0.29 OD595 | 0.13 OD595 | growth OD595 in M63-maltose [3]: 0.39 OD595; growth OD595 in M63-maltose [4]: 0.32 OD595 |
| T18-Zip (domain or fragment) | – | – | growth OD595 in M63-maltose (T25-Zip): 0.23 OD595 |

Now from value to substance, other results behind:

| growth OD595 in M63-maltose [1] | growth OD595 in M63-maltose [2] | Substance | other results |
| --- | --- | --- | --- |
| – | 0.37 OD595 | T18-HP0221 (from UniProt O25009 2-326) (natural protein) | – |
| 0.25 OD595 | – | T18-HP0285 (from UniProt P56130 2-418) (natural protein) | – |
| 0.29 OD595 | – | T18-HP0468 (from UniProt O25214 2-495) (natural protein) | – |
| 0.21 OD595 | – | T18-HP0768 (from UniProt P56414 2-321) (natural protein) | – |
| 0.13 OD595 | – | T18-HP0934 (from UniProt O25588 2-251) (natural protein) | – |
| – | 0.32 OD595 | T18-HP1266 (from UniProt O25856 2-844) (natural protein) | – |
